Laboratory results from paper PMC9239176, “Involvement of the DNA Phosphorothioation System in TorR Binding and Anaerobic TMAO Respiration in Salmonella enterica”.

How the values were obtained:
[1] = system: Biotin carboxyl carrier protein of acetyl-CoA carboxylase (Salmonella enterica serovar Cerro 87); experiment: pull-down LC-MS/MS; settings: EMSA: 50 nM DNA, 20 mM Tris-HCl pH 8.0, 50 mM KCl, 10 mM MgCl2, 5 mM EDTA, 10 mM DTT, 5% glycerol, 28 C 30 min, gel at 4 C, pull-down: cell lysate, 4 C 4 h
[2] = system: DndF (Salmonella enterica serovar Cerro 87); experiment: pull-down LC-MS/MS; settings: EMSA: 50 nM DNA, 20 mM Tris-HCl pH 8.0, 50 mM KCl, 10 mM MgCl2, 5 mM EDTA, 10 mM DTT, 5% glycerol, 28 C 30 min, gel at 4 C, pull-down: cell lysate, 4 C 4 h
[3] = system: DndG (Salmonella enterica serovar Cerro 87); experiment: pull-down LC-MS/MS; settings: EMSA: 50 nM DNA, 20 mM Tris-HCl pH 8.0, 50 mM KCl, 10 mM MgCl2, 5 mM EDTA, 10 mM DTT, 5% glycerol, 28 C 30 min, gel at 4 C, pull-down: cell lysate, 4 C 4 h
TorR CTD = molecular target: T1, TorR CTD (Salmonella enterica serovar Cerro 87, UniProt Q8ZKZ5 127-230); experiment: EMSA; EMSA: 50 nM DNA, 20 mM Tris-HCl pH 8.0, 50 mM KCl, 10 mM MgCl2, 5 mM EDTA, 10 mM DTT, 5% glycerol, 28 C 30 min, gel at 4 C; pull-down: cell lysate, 4 C 4 h; settings: protein: recombinant; tags: His (pET28a, Ni-NTA)
T1 sequence: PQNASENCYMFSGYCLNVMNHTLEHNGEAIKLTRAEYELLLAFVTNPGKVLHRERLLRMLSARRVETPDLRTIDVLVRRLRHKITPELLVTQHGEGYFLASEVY

[4] = phosphorothioate: strand 1 between G13 and A14, strand 2 between G15 and T16

GGCCCACTACGTGAACCATCACCCTAATCA (double strand) [B12]
binding signal (normalized spectral count) [1, 4]: 1.41
binding signal (normalized spectral count) [2, 4]: 20.2
binding signal (normalized spectral count) [3, 4]: 30.9

GGCCCACTACGTGAACCATCACCCTAATCA (double strand) [B34]
binding signal (B34/B12 ratio) [1]: 2.78
binding signal (B34/B12 ratio) [2]: 0.43
binding signal (B34/B12 ratio) [3]: 0.32

B1: tor box1, PT (dsDNA)
DNA 1: CCTGCGCGCGGTCTCTTTCTGTTCATATCT
DNA 2: AGATATGAACAGAAAGAGACCGCGCGCAGG
modifications: phosphorothioate GpsTTC/GpsAAC
binding result (TorR CTD): binds
